Results on 15 molecules are retold here after patent US20240116985A1, “STAPLED PEPTIDES AND METHODS THEREOF” (priority 2020, published 2024).

Starred links: 1 amine or outer side, 2 acyl side, 3 side chain; linkers in the order of their positions; H or OH if unused. Positions of bridges follow the written chain, without caps; N, C: chain ends. Non-standard residues stand in square brackets, D forms with d. Primed or numbered codes have the meaning given here. PyrS2(3) = (S)-3-amino-1-((pent-4-en-1-yloxy)carbonyl)pyrrolidine-3-carboxylic acid, stapling residue, C=CCCCOC(=O)N1CC[C@@](N[*:1])(C(=O)[*:2])C1; PyrS2″ = (S)-3-amino-1-((pent-4-en-1-yloxy)carbonyl)pyrrolidine-3-carboxylic acid (stapling residue), C=CCCCOC(=O)N1CC[C@@](N[*:1])(C(=O)[*:2])C1; B5(4) = 2,2-bis(4-pentenyl)glycine = 2-amino-2-(pent-4-en-1-yl)hept-6-enoic acid (stitching residue), C=CCCCC(CCCC=C)(N[*:1])C(=O)[*:2]; B5(21) = 2-amino-2-(pent-4-en-1-yl)hept-6-enoic acid, bis(4-pentenyl)glycine (stitching residue), C=CCCCC(CCCC=C)(N[*:1])C(=O)[*:2]; 4TriA = (S)-2-amino-3-(1H-1,2,3-triazol-4-yl)propanoic acid, O=C([C@H](Cc1c[nH]nn1)N[*:1])[*:2]; B5(3) = 2,2-bis(4-pentenyl)glycine (stitching residue), C=CCCCC(CCCC=C)(N[*:1])C(=O)[*:2]; B5″ = 2,2-bis(4-pentenyl)glycine, stitching residue, C=CCCCC(CCCC=C)(N[*:1])C(=O)[*:2]; B5 = 2-amino-2-(pent-4-en-1-yl)hept-6-enoic acid, C=CCCCC(CCCC=C)(N[*:1])C(=O)[*:2]; Ala(4-thiazolyl) = N[C@@H](Cc1cscn1)C(=O)O; Phe(2-Cl) = N[C@@H](Cc1ccccc1Cl)C(=O)O; Bta = N[C@@H](Cc1csc2ccccc12)C(=O)O; αAllylPro = C=CC[C@@]1(C(=O)O)CCCN1; tBuAla = CC(C)(C)C[C@H](N)C(=O)O; 3Thi = N[C@@H](Cc1ccsc1)C(=O)O; S8 = C=CCCCCCC[C@](C)(N)C(=O)O; R5 = C=CCCC[C@@](C)(N)C(=O)O; Aib = CC(C)(N)C(=O)O

One assay has as its target full-length beta-Catenin (Uniprot ID P35222) (Homo sapiens (Human)) (UniProt P35222). Briefly: fluorescence polarization competition; full-length beta-catenin; competitor 5FAM-TCF4(10-53) probe.
Target sequence in this assay (P35222 whole entry): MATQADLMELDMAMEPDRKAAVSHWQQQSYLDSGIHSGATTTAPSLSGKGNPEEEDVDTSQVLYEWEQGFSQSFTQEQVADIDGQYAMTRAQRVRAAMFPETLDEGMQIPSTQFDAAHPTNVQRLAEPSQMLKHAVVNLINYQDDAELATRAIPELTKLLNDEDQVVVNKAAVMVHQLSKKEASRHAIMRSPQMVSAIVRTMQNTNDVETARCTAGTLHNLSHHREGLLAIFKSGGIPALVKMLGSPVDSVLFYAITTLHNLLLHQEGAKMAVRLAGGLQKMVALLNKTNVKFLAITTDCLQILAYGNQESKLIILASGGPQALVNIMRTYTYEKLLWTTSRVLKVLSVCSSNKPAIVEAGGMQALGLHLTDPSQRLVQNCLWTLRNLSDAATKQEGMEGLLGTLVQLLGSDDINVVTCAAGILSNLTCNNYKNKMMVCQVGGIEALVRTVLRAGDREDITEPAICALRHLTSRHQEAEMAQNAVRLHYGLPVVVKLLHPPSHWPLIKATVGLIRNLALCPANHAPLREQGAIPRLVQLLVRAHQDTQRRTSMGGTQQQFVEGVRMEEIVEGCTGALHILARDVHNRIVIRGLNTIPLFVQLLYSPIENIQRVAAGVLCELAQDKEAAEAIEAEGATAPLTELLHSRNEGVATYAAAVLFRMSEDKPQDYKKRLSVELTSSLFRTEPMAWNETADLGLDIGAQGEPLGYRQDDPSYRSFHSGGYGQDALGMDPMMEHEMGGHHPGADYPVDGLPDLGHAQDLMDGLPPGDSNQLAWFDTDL
Ac-[αAllylPro]D[tBuAla][B5(4)]DDAAFL[S8][Phe(2-Cl)][Bta]H-NH2 (staple 1-4, 4-11) [I-1194] yielded an EC50 of 66.5 nM.

Ac-[αAllylPro]D[tBuAla][B5″]DDAAFL[S8][3Thi][Bta]H-NH2 (staple 1-4, 4-11) [I-1195] showed a concentration giving a half-maximal response (EC50) of 29.5 nM.

The molecule Ac-[αAllylPro]D[tBuAla][B5(21)]DD[Aib][Aib]FL[PyrS2″][3Thi][Bta]Q-NH2 (staple 1-4, 4-11; also: later eluting HPLC peak (staple isomer composition)) [I-1180] gave an EC50 of 87 nM.

As to Ac-[αAllylPro]D[tBuAla][B5(4)]DDAAFL[S8][Phe(2-Cl)][Bta]S-NH2 (staple 1-4, 4-11) [I-1189], the concentration for a half-maximal effect (EC50) was 94.5 nM.

On to Ac-PD[tBuAla][R5]DDAAFL[PyrS2(3)][3Thi][Bta]Q-NH2 (staple 4-11) [I-1181], for which the 50% effective concentration (EC50) stood at 226 nM.

Ac-[αAllylPro]D[tBuAla][B5(4)]DDAAFL[S8][Phe(2-Cl)][Bta][4TriA]-NH2 (staple 1-4, 4-11) [I-1192] showed an EC50 of 81.5 nM.

Consider Ac-PD[tBuAla][R5]DDAAFN[PyrS2″][3Thi][Bta]Q-NH2 (staple 4-11) [I-1182], for which the EC50 turned out to be 144 nM.

A further assay shares this target. Briefly: fluorescence polarization competition, displacement of 5FAM-TCF4 10-53 from full-length beta-catenin. (Fluorescence polarisation rises when a labelled molecule tumbles more slowly, as on binding a larger partner.)
Target sequence in this assay (P35222 2-781 limits assumed): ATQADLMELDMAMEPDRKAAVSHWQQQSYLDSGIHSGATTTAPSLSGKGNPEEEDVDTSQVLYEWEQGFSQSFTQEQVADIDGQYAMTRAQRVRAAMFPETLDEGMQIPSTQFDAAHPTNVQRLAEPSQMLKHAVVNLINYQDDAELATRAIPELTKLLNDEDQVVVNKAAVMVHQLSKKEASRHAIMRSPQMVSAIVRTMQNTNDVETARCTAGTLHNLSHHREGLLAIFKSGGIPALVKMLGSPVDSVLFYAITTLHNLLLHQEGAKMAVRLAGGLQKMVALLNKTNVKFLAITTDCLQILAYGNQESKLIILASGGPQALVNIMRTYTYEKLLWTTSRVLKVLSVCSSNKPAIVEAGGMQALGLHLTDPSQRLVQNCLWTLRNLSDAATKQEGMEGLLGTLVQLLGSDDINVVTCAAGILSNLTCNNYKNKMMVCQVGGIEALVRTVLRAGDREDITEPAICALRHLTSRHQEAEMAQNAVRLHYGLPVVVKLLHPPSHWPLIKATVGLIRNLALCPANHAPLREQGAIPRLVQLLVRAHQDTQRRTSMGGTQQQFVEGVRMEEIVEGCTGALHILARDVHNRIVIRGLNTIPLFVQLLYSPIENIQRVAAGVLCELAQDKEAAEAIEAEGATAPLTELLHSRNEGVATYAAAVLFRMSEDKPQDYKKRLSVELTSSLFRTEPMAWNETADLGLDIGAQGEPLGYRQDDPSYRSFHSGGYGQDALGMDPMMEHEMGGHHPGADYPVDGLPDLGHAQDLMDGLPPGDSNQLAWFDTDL
With Ac-[αAllylPro]D[tBuAla][B5(4)]DDAAFL[S8][Phe(2-Cl)][Bta]H-NH2 (staple 1-4, 4-11) [I-1194], the IC50 is 66.5 nM.

Ac-[αAllylPro]D[tBuAla][B5″]DDAAFL[S8][3Thi][Bta]H-NH2 (staple 1-4, 4-11) [I-1195] showed an IC50 of 29.5 nM.

In the case of Ac-[αAllylPro]D[tBuAla][B5(21)]DD[Aib][Aib]FL[PyrS2″][3Thi][Bta]Q-NH2 (staple 1-4, 4-11; also: later eluting HPLC peak (staple isomer composition)) [I-1180], the concentration for half-maximal inhibition (IC50) was 87 nM.

Ac-[αAllylPro]D[tBuAla][B5(4)]DDAAFL[S8][Phe(2-Cl)][Bta]S-NH2 (staple 1-4, 4-11) [I-1189] yielded a half-maximal inhibitory concentration (IC50) of 94.5 nM.

On to Ac-PD[tBuAla][R5]DDAAFL[PyrS2(3)][3Thi][Bta]Q-NH2 (staple 4-11) [I-1181], for which the half-inhibitory concentration (IC50) is 297 nM.

Take Ac-[αAllylPro]D[tBuAla][B5(4)]DDAAFL[S8][Phe(2-Cl)][Bta][4TriA]-NH2 (staple 1-4, 4-11) [I-1192]: the IC50 amounted to 81.5 nM.

Ac-PD[tBuAla][R5]DDAAFN[PyrS2″][3Thi][Bta]Q-NH2 (staple 4-11) [I-1182] came in with a half-inhibitory concentration (IC50) of 144 nM.

The next assay shares this target. Nature of the assay: fluorescence polarization competition, peptide titrated against full-length beta-catenin + 5FAM-TCF4(10-53).
Target sequence in this assay (P35222 2-781 limits assumed): as above
For Ac-[αAllylPro]D[tBuAla][B5(3)]DDAAFT[PyrS2″][3Thi][Bta]Q-NH2 (staple 1-4, 4-11) [I-809], the concentration for a half-maximal effect (EC50) amounted to 5 nM.

On to Ac-[αAllylPro]D[tBuAla][B5]DDAAFN[PyrS2″][3Thi][Bta][dH]-NH2 (staple 1-4, 4-11) [I-813], for which the concentration giving a half-maximal response (EC50) was found to be 7 nM.

On to Ac-[αAllylPro]D[tBuAla][B5]DDAAFN[PyrS2″][3Thi][Bta]S-NH2 (staple 1-4, 4-11) [I-815], for which the EC50 was 5 nM.

Ac-[αAllylPro]D[tBuAla][B5]DDAAFN[PyrS2″][3Thi][Bta]T-NH2 (staple 1-4, 4-11) [I-814]: the EC50 amounted to 7 nM.

On to Ac-[αAllylPro]D[tBuAla][B5(3)]DDAA[Ala(4-thiazolyl)]N[PyrS2″][3Thi][Bta]Q-NH2 (staple 1-4, 4-11) [I-812], for which the EC50 was determined as 33 nM.

In the case of Ac-[αAllylPro]D[tBuAla][B5(3)]DDAAFT[PyrS2″][3Thi][Bta]H-NH2 (staple 1-4, 4-11) [I-810], the concentration for a half-maximal effect (EC50) was 6 nM.

In the case of Ac-[αAllylPro]D[tBuAla][B5(3)]DDAAFF[PyrS2″][3Thi][Bta]H-NH2 (staple 1-4, 4-11) [I-808], the concentration giving a half-maximal response (EC50) is 5 nM.

Consider Ac-[αAllylPro]D[tBuAla][B5]DDAAFN[PyrS2″][3Thi][Bta]N-NH2 (staple 1-4, 4-11) [I-816], for which the EC50 was determined as 5 nM.

A further assay shares this target. Nature of the assay: fluorescence polarization competition; 10 nM full-length beta-catenin with 10 nM 5FAM-TCF4(10-53) probe as competitor.
Target sequence in this assay (P35222 2-781 limits assumed): as above
Molecule Ac-[αAllylPro]D[tBuAla][B5(3)]DDAAFT[PyrS2″][3Thi][Bta]Q-NH2 (staple 1-4, 4-11) [I-809] came in with a half-maximal inhibitory concentration (IC50) of 5 nM.

In the case of Ac-[αAllylPro]D[tBuAla][B5]DDAAFN[PyrS2″][3Thi][Bta][dH]-NH2 (staple 1-4, 4-11) [I-813], the IC50 came to 7 nM.

The molecule Ac-[αAllylPro]D[tBuAla][B5]DDAAFN[PyrS2″][3Thi][Bta]S-NH2 (staple 1-4, 4-11) [I-815] had an IC50 of 5 nM.

Turning to Ac-[αAllylPro]D[tBuAla][B5]DDAAFN[PyrS2″][3Thi][Bta]T-NH2 (staple 1-4, 4-11) [I-814], the IC50 came to 7 nM.

Molecule Ac-[αAllylPro]D[tBuAla][B5(3)]DDAA[Ala(4-thiazolyl)]N[PyrS2″][3Thi][Bta]Q-NH2 (staple 1-4, 4-11) [I-812] displayed a half-inhibitory concentration (IC50) of 33 nM.

In turn, Ac-[αAllylPro]D[tBuAla][B5(3)]DDAAFT[PyrS2″][3Thi][Bta]H-NH2 (staple 1-4, 4-11) [I-810] gave an IC50 of 6 nM.

Ac-[αAllylPro]D[tBuAla][B5(3)]DDAAFF[PyrS2″][3Thi][Bta]H-NH2 (staple 1-4, 4-11) [I-808] registered a half-inhibitory concentration (IC50) of 5 nM.

The molecule Ac-[αAllylPro]D[tBuAla][B5]DDAAFN[PyrS2″][3Thi][Bta]N-NH2 (staple 1-4, 4-11) [I-816] came in with a half-inhibitory concentration (IC50) of 5 nM.

As a reminder, the EC50 is the midpoint of the concentration-response curve. For orientation: IC50 means the concentration needed to halve the response being measured. A low value points to inhibition by little substance.
